{
  "source": "patent US20060088522A1",
  "about": "“Humanized anti-5T4 antibodies and anti-5T4/calicheamicin conjugates” (Wyeth, priority 2004, published 2006)",
  "molecules": {"B1": {"name": "H8-AcBut-CalichDMH (antibody, V domains shown)", "VH": "EVQLQQSGPDLVKPGASVKISCKASGYSFTGYYMHWVKQSHGKSLEWIGRINPNNGVTLYNQKFKDKAILTVDKSSTTAYMELRSLTSEDSAVYYCARSTMITNYVMDYWGQVTSVTVSS", "VL": "SIVMTQTPTFLLVSAGDRVTITCKASQSVSNDVAWYQQKPGQSPTLLISYTSSRYAGVPDRFIGSGYGTDFTFTISTLQAEDLAVYFCQQDYNSPPTFGGGTKLEIK"}, "B2": {"name": "H8PEGmal2-AcBut-CalichDMH (antibody, V domains shown)", "VH": "B1 VH", "VL": "B1 VL"}, "B3": {"name": "H8-AcPac-CalichDMH (antibody, V domains shown)", "VH": "B1 VH", "VL": "B1 VL"}, "B4": {"name": "H8-Amide-CalichDMH (antibody, V domains shown)", "VH": "B1 VH", "VL": "B1 VL"}, "B5": {"name": "Semi-Humanized H8 (mVH/hVL1) (antibody, human IgG4 S228P, kappa, V domains shown)", "VH": "B1 VH", "VL": "DIVMTQSPDSLAVSLGERATINCKASQSVSNDVAWYQQKPGQSPKLLISYTSSRYAGVPDRFSGSGSGTDFTLTISSLQAEDVAVYFCQQDYNSPPTFGGGTKLEIKR", "notes": "murine H8 VH + mutated human IgG4; also called semi-humanized H8 antibody; semi-human anti-5T4 antibody"}, "B6": {"name": "murine H8 anti-5T4 antibody (antibody, V domains shown)", "VH": "B1 VH", "VL": "B1 VL", "notes": "also called mAb5T4; H8 antibody"}, "B7": {"name": "H8 antibody/PEG-SPA (PEG2K) (antibody, V domains shown)", "VH": "B1 VH", "VL": "B1 VL", "notes": "also called H8PEG2K; H8PEG"}, "B8": {"name": "H8 antibody/PEG-SBA (PEG5K) (antibody, V domains shown)", "VH": "B1 VH", "VL": "B1 VL", "notes": "also called H8PEG5K; H8PEG"}, "B9": {"name": "H8 antibody/PEG-bis-maleimide (PEGmal2) (antibody, V domains shown)", "VH": "B1 VH", "VL": "B1 VL", "notes": "also called H8PEGmal2; H8PEG(mal2)"}, "B10": {"name": "Chimeric H8 (mVH/mVL) (antibody, V domains shown)", "VH": "B1 VH", "VL": "B1 VL", "notes": "also called chimeric H8 antibody; chimeric versions of H8"}, "B11": {"name": "Humanized H8 version 2 (hVH2/hVL2) (antibody, human IgG4 S228P, kappa, V domains shown)", "VH": "QVQLVQSGAEVKKPGASVKVSCKASGYSFTGYYMHWVRQAPGQGLEWMGRINPNNGVTLYNQKFKDRVTMTRDTSISTAYMELSRLRSDDTAVYYCARSTMITNYVMDYWGQGTLVTVSS", "VL": "B5 VL with S43P, S49Y, F87Y"}, "B12": {"name": "Humanized H8 version 1 (hVH1/hVL1) (antibody, human IgG4 S228P, kappa, V domains shown)", "VH": "B11 VH with R38K, A40S, M48I", "VL": "B5 VL"}, "B13": {"name": "Humanized H8 version 3 (hVH3/hVL2) (antibody, human IgG4 S228P, kappa, V domains shown)", "VH": "B11 VH with M70I, I76T, R85S, D89E", "VL": "B5 VL with S43P, S49Y, F87Y"}, "B14": {"name": "Murine H8/CM (antibody, V domains shown)", "VH": "B1 VH", "VL": "B1 VL", "notes": "also called murine H8-calicheamicin conjugates"}, "B15": {"name": "Humanized H8 version 2/CM (antibody, human IgG4 S228P, kappa, V domains shown)", "VH": "B11 VH", "VL": "B5 VL with S43P, S49Y, F87Y", "modifications": "calicheamicin (CM) conjugated; linker and residues not stated", "notes": "also called humanized H8 version 2-calicheamicin conjugates"}, "B16": {"name": "Humanized H8 version 2/AcBut/CalichDMH (antibody, human IgG4 S228P, kappa, V domains shown)", "VH": "B11 VH", "VL": "B5 VL with S43P, S49Y, F87Y", "modifications": "CalichDMH conjugated through the AcBut linker; residues not stated", "notes": "Conjugate sample contained 61 ug CalichDMH per mg protein, 1% free antibody, 1.4% aggregate; also called humanized H8 calicheamicin conjugate"}},
  "key": {"PC14PE6 lung tumors": {"test_system": "PC14PE6 lung tumors", "assay": "orthotopic model of human lung cancer", "format": "in vivo, nude mice", "conditions": "intraperitoneal, 3 doses on days 6, 10 and 14", "procedure": "To further assess the targeting ability of antibodies having an H8-calicheamicin conjugates, an orthotopic model for non-small cell and small cell cancer was used, essentially as described by Onn et al. (2003) Clin. Cancer Res. 9(15):5532-5539. In brief, human lung adenocarcinoma (PC14PE6) cells were injected into tail veins of nude mice, which then migrated to form tumors in lung. Tumors appeared as solid nodules in the lung parenchyma and caused hemorrhagic pleural effusions containing suspended tumor cells. Injection of control compounds and H8-calicheacmicin conjugates were administered by intraperitoneal injection to tumor-bearing mice beginning at 6 days after injection of tumor cells for a total of 3 doses given at 4-day intervals, i.e., on days 6, 10, and 14."}, "[1]": {"biological_target": "T1, human 5T4 antigen on cells (human, UniProt Q13641 32-420)", "T1 construct": "whole, on cells; also called 5T4 on MDAMB435/5T4 cells; 5T4 on CT26/5T4 cells", "T1 sequence (looked up)": "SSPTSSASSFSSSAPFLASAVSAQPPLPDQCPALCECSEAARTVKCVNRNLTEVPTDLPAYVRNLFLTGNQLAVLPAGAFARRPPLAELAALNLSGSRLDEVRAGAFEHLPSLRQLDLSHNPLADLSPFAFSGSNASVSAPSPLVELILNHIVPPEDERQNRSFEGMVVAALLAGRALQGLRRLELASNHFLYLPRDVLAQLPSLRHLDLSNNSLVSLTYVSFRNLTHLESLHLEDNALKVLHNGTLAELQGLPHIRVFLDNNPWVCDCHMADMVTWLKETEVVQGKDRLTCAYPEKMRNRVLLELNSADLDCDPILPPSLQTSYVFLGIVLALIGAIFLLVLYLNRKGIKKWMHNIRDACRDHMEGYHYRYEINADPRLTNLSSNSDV", "assay": "cell-based or functional assay"}, "[2]": {"biological_target": "T1, human 5T4 antigen on cells", "assay": "FACS on MDAMB435/5T4 cells"}, "[3]": {"biological_target": "T1, human 5T4 antigen on cells", "assay": "flow cytometry on MDAMB435/5T4 cells"}, "human 5T4 antigen [4]": {"biological_target": "T2, human 5T4 antigen (human, UniProt Q13641 32-355, limits assumed)", "T2 construct": "Isolated antigen as used in BIACORE and ELISA; also called 5T4 oncofetal antigen", "T2 sequence (looked up)": "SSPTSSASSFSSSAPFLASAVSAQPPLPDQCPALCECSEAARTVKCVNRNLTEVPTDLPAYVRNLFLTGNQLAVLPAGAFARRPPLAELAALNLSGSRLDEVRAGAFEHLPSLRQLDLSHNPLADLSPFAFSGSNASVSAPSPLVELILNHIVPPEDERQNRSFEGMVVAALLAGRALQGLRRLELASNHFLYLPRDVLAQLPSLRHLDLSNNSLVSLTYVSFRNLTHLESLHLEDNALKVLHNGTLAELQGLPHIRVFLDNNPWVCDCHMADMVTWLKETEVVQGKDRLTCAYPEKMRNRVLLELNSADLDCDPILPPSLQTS", "assay": "BIACORE, human 5T4 antigen immobilized on a CM5 chip, antibody 12.5 nM to 200 nM", "procedure": "BIACORE® technology utilizes changes in the refractive index at the surface layer upon binding of the antibody to the 5T4 antigen immobilized on the layer. Binding is detected by surface plasmon resonance (SPR) of laser light refracting from the surface. Analysis of the signal kinetics on rate and off rate allows the discrimination between non-specific and specific interaction. The concentration of antibody used was in the range of 12.5 nM to 200 nM."}, "[5]": {"biological_target": "T1, human 5T4 antigen on cells", "assay": "flow cytometry on N87, PC14PE6 and NCl-H157 cells (told of each)"}, "human 5T4 antigen [6]": {"biological_target": "T2, human 5T4 antigen", "assay": "BIACORE"}, "human 5T4 antigen [7]": {"biological_target": "T2, human 5T4 antigen", "assay": "competition ELISA on plate-coated human 5T4 antigen; competitor biotinylated chimeric H8 at its ED50"}, "human 5T4 antigen [8]": {"biological_target": "T2, human 5T4 antigen", "assay": "BIACORE (plasmon resonance)"}},
  "note": "Positions count from the first letter of the chain named.",
  "data": [
    {"molecule": "CMA: anti-CD33 antibody (p67.6) conjugated to calicheamicin, AcBut linker; control conjugate", "values": [
      {"measurement": "pleural effusions", "setting": "PC14PE6 lung tumors", "result": "did not reduce the pleural effusions"},
      {"measurement": "survival of tumor-bearing animals", "setting": "PC14PE6 lung tumors", "result": "slightly increased the average survival"}
    ]},
    {"molecule": "B1", "values": [
      {"measurement": "ED50 (ng/ml calicheamicin), MTS vital dye, MDAMB435/5T4 cells", "setting": "[1]", "result": 0.04, "unit": "ng/mL"}
    ]},
    {"molecule": "B2", "values": [
      {"measurement": "ED50 (ng/ml calicheamicin), MTS vital dye, MDAMB435/5T4 cells", "setting": "[1]", "result": 0.9, "unit": "ng/mL"}
    ]},
    {"molecule": "B3", "values": [
      {"measurement": "ED50 (ng/ml calicheamicin), MTS vital dye, MDAMB435/5T4 cells", "setting": "[1]", "result": 0.02, "unit": "ng/mL"}
    ]},
    {"molecule": "B4", "values": [
      {"measurement": "ED50 (ng/ml calicheamicin), MTS vital dye, MDAMB435/5T4 cells", "setting": "[1]", "result": 0.18, "unit": "ng/mL"},
      {"measurement": "fold cytotoxicity, 5T4-expressing against 5T4-negative cells", "setting": "[1]", "result": 200, "unit": "fold"}
    ]},
    {"molecule": "B5", "values": [
      {"measurement": "binding result", "setting": "[2]", "result": "binds"}
    ]},
    {"molecule": "B6", "values": [
      {"measurement": "fold signal over control IgG", "setting": "[3]", "result": "> 100", "unit": "fold"},
      {"measurement": "Kd", "setting": "human 5T4 antigen [4]", "result": 0.58, "unit": "nM"},
      {"measurement": "koff", "setting": "human 5T4 antigen [4]", "result": "5.9e-05", "unit": "s⁻¹"},
      {"measurement": "kon", "setting": "human 5T4 antigen [4]", "result": 100000, "unit": "M⁻¹ s⁻¹"},
      {"measurement": "fold signal over control IgG", "setting": "[5]", "result": "~10", "unit": "fold"}
    ]},
    {"molecule": "B7", "values": [
      {"measurement": "fraction of binding to 5T4 lost following antibody modification", "setting": "human 5T4 antigen [6]", "result": 69, "unit": "%"}
    ]},
    {"molecule": "B8", "values": [
      {"measurement": "fraction of binding to 5T4 lost following antibody modification", "setting": "human 5T4 antigen [6]", "result": 79, "unit": "%"}
    ]},
    {"molecule": "B9", "values": [
      {"measurement": "fraction of binding to 5T4 lost following antibody modification", "setting": "human 5T4 antigen [6]", "result": 43, "unit": "%"}
    ]},
    {"molecule": "B10", "values": [
      {"measurement": "IC50", "setting": "human 5T4 antigen [7]", "result": 1, "unit": "nM"},
      {"measurement": "Kd", "setting": "human 5T4 antigen [4]", "result": 0.3, "unit": "nM"},
      {"measurement": "koff", "setting": "human 5T4 antigen [4]", "result": "4.2e-05", "unit": "s⁻¹"},
      {"measurement": "kon", "setting": "human 5T4 antigen [4]", "result": 140000, "unit": "M⁻¹ s⁻¹"}
    ]},
    {"molecule": "B11", "values": [
      {"measurement": "Kd", "setting": "human 5T4 antigen [4]", "result": 0.12, "unit": "nM"}
    ]},
    {"molecule": "B12", "values": [
      {"measurement": "Kd", "setting": "human 5T4 antigen [4]", "result": 0.84, "unit": "nM"}
    ]},
    {"molecule": "B13", "values": [
      {"measurement": "Kd", "setting": "human 5T4 antigen [4]", "result": 0.12, "unit": "nM"}
    ]},
    {"molecule": "B14", "values": [
      {"measurement": "Kd", "setting": "human 5T4 antigen [8]", "result": 0.58, "unit": "nM"},
      {"measurement": "koff", "setting": "human 5T4 antigen [8]", "result": "5.9e-05", "unit": "s⁻¹"},
      {"measurement": "kon", "setting": "human 5T4 antigen [8]", "result": 100000, "unit": "M⁻¹ s⁻¹"}
    ]},
    {"molecule": "B15", "values": [
      {"measurement": "Kd", "setting": "human 5T4 antigen [8]", "result": 0.17, "unit": "nM"},
      {"measurement": "koff", "setting": "human 5T4 antigen [8]", "result": "2e-05", "unit": "s⁻¹"},
      {"measurement": "kon", "setting": "human 5T4 antigen [8]", "result": 120000, "unit": "M⁻¹ s⁻¹"}
    ]},
    {"molecule": "B16", "values": [
      {"measurement": "Kd", "setting": "human 5T4 antigen [8]", "result": 0.26, "unit": "nM"},
      {"measurement": "koff", "setting": "human 5T4 antigen [8]", "result": "3.4e-05", "unit": "s⁻¹"},
      {"measurement": "kon", "setting": "human 5T4 antigen [8]", "result": 130000, "unit": "M⁻¹ s⁻¹"}
    ]}
  ]
}
